Source: the DeepSol protein solubility set

Assay: soluble on expression in E. coli; label from the status in PepcDB or PDB records

Row | Sequence | soluble on expression in E. coli
1 | MGSDKIHHHHHHMELYAASYILPIASPPIPGGAVAVHDGCIVETGTLAELRSRHSGPVHDFPGCAILPGLVNAHTHLELTHFPSWKIRKGIDYSPRTYVDWIIQVIKIRRALSPQELELSVREGLRICLEAGTTAIGEILTDRSLIPLYADSGLRGRLLFEAIGHDPVRNAQLVEELDAAIASFSGGSFLPGISPHAPHTVAEHLHQDVYRLAYERNVPRVIHLAESREESDFFFDSSGKIAEFLYPHVRWESYLPAPRRTTATAWLDGLGVLNGTISAVHCVHLTPSDAEILAKRGVGVVLCPRSNDKLAVGRAPVVLLKRLGVPLALGTDSLASNDSLSLWDEMRYLLDTFPGIFTPTEALSMTTIGSARQLALADRTGSLDKGKHADFLVMKLPGRNGSGEALHEALIHSGEILQVFLAGNLVVSREAFS | not soluble
2 | MSLSHIRPDFPEPYGLPVDGLRGKTSIFSHPVYLFLREFSLQDSRGGSLSKKAESLSSGKITIGTKEKVIIINELRQCHPLSQLLVIADLPRSTFYYHVKRLNAPDPYQLVKQVILRIYHQHKGRYGYRRIRLACRNESILLNGKTIRKLMKELGISSLIRRKKYRTYRGEQGRTCNNLLKRQFYADRPNQKWVTDVTEFKVDGRKLYLSPIMDLYNGEIVSYNLTERPLASMVKSMLLDAVEQLNKDDKPLLHSDQGWQYQMPRWQRWLSDNGITQSMSRRGNCLDNAAMESFFSTLKEGHHHHHH | not soluble
3 | MDDREGSFVAVRRISQGLERGSVYNSSSAEAVPGSAAWLGRGLSCVCAQRRDSDANSTFDLTPAQEECLQSLQNRIDVAYDSTIPLHQEALRELWKLSFPEEELHGLISEQWKEMGWQGKDPSTDFRGGGFISLENLLYFARNFQKSFQDLLRKQVGDRSVWEYPFAVAGINLTFMLIQMLDLEAVKPRTIVGATFLKFLSENESAFDLLYCIAFKLMDQQWLSMRASYMEFNTVMKSTRRQLERELMLEDIMHLEDLPSYALLNQ | not soluble
4 | MGSDKIHHHHHHFNQYRENVELTAQRLEATYRASNILNLGVACLKKHFGFLGMEINWSTGSVTWFDDFRKRVLLQSDGDAWENVFSLLDTEKYYNLSSDIDFSTEASKLGFSNFEAVAIPFKNNPFFALLVVRAQVGKAVVYKYAVLSSDFLNKYAYFTEKETRPDGDKIYFITQDIIDGPFRSNDVIHVKGEPLFKGSVEFKDIDLEAGEGPRYENPPPKYLTEEDIKKYNIEKIKDYYSQQIERIVKPASEVVLSSEPVGIELPSINEFVESWEEKENDKTIYYKKQREIVYTLEFNTPKGSSGNDYLIKVSYKEVYRIYKSEDQEKWNFVREEVLGEGELFHIKSKPNSDQYHLVLQGNEAREFLGLDRNEYDIYFNGVIKTDNDVYLKNMSEGNIKPMFVDGRYTIVANNIYIEDHIIYNDYREVLEEIADKEKISGNSDQKIAQAVIRKLGVDGNIEEDYSELLKNHESDDFLNLVAYKNVVITDKKPNMKIFASIYAFTGSFYVKGYNEKDFLKNNERELTERELTIFGSLAQYVRGAVGTFYWSRDGKPTIKTGYRKNYIYDWRILKGFSVFGTPTVPKESNILNVREVY | not soluble
5 | GPGSMQQPGSHQIQPIDSLTPFLGGKWWIRARVTDKTDIRTWNKPTSQGKLFSFTLIDESAAIRATVFNDAVDTFEPLIVNGQVYYFSGGQVKNANRRFSNVNNDYELTFDRSSEIMLARQDTSTAALPMQRYNFVPIELLKQREVGSLVDVLGVVLKVDEVSSITQKSTGRELMKRNVKMGDMTAAVEVTFWNDEAKAWCYPVGTVVALRQLKVGSFDGVTLSSTYQTKIDINPTDLPDVKKLATWYVATGGANVTSLSSQGLGAASGAGGESDRGRKYLDEIQSEGIGRGLKPEYVDVRCVPIYFKQDAQWYDACPTCNKKVTEEGAQGDRFRCEKCDKTVTPTQRYLVSIQVTDNVSQAWLTLFNEAGIEFFGMEAAELKRRAQEDPLYIAKLAQGRMNRPVVMRLRVKEEMSSNSMTGEESDRLRMSVVRISEFMPIAGTSEETRRRLAQNLRTECDEILRLIEAYV | not soluble
6 | MSWVQLAGHTGSFKAAGTSGLILKRCSEPERYCLARLMADALRGCVPAFHGVVERDGESYLQLQDLLDGFDGPCVLDCKMGVRTYLEEELTKARERPKLRKDMYKKMLAVDPEAPTEEEHAQRAVTKPRYMQWREGISSSTTLGFRIEGIKKADGSCSTDFKTTRSREQVLRVFEEFVQGDEEVLRRYLNRLQQIRDTLEVSEFFRRHEVIGSSLLFVHDHCHRAGVWLIDFGKTTPLPDGQILDHRRPWEEGNREDGYLLGLDNLIGILASLAER | soluble
7 | MKHQHQHQHQHQHQQPLQEEEQAHATSLPPRASSPPQILPQLSPEQLGMIEKLVAAQQQCNRRSFSDRLRVTPWPMAPDPHSREARQQRFAHFTELAIVSVQEIVDFAKQLPGFLQLSREDQIALLKTSAIEVMLLETSRRYNPGSESITFLKDFSYNREDFAKAGLQVEFINPIFEFSRAMNELQLNDAEFALLIAISIFSADRPNVQDQLQVERLQHTYVEALHAYVSIHHPHDRLMFPRMLMKLVSLRTLSSVHSEQVFALRLQDKKLPPLLSEIWDVHE | soluble
8 | MQYKGQGFQPVAEKSAIAHAKKYREEYEKLGEQFFKDNFSLNVKATNVVGSGDGVEVYVHCDDHDIVFNASIPFDKEAIHEEGSMRSNDNGDTMSNMVGTVLSGFEYKAQKEKYDNLTKFFKDNEEKYQYTGFTKEAIHKTQNVGYQNEYYYLAGNVTNINNYRKYYEPLIKKDSKNFKEGMKKANEATNFKAKIEVVSTLFSTKSDFTKNNSKKDLLFLSDDLYHYKEKPENTNITLQLSEPKINSTRAFYDANNPLEYGVHKHELEHHHHHH | not soluble
9 | SINNGTFDEPIVNDQANNPDEWFIWQAGDYGISGARVSDYGVRDGYAYITIADPGTDTWHIQFNQWIGLYRGKTYTISFKAKADTPRPINVKILQNHDPWTNYFAQTVNLTADWQTFTFTYTHPDDADEVVQISFELGEGTATTIYFDDVTVSPQ | soluble
10 | AIANSRAADQLELDGLPGTPPDFYRERQRSRVERYQSPAGAPLQCSVQVQTTQEHPLWTSHVWSGARALADTLCWQPELIAGKTVCELGAGAGLVSIVAFLAGADQVVATDYPDPEILNSLESNIREHTANSCSSETVKRASPKVVPYRWGDSPDSLQRCTGLQRFQVVLLADLLSFHQAHDALLRSVKMLLALPANDPTAVALVTFTHHRPHLAERDLAFFRLVNADGALIAEPWLSPLQMDPMFPDDPGDVCIRGQVHRWRLRWRSAASASANIPAHARNE | soluble
11 | MRLDLENLVETPSNEIAGFYEGLVEALPSLEGHYCSPGCRGGFLMRVREGTMMGHIVEHVALELQELAGMHVGFGRTRETATPGVYQVVIEYINEEAGRYAGRAAVRLCQSIVDRGRYPKAELEQDIQDLKDFSREASLGPSTEAIIKEAEKRGIPWMPLAARFLIQLGYGVNQKRMQATMTDNTGILGVELACDKEATKRILAANGVPVPRGTVINFLDDLEESIEYVGGYPIVIKPLDGNHGRGITIDIRSWDEAEAAYEAARQVSRSIIVERYYVGRDHRVLVVDGKVVAVAERVPAHVIGNGRSSIAELITETNQDPNRGEGHDNVLTKIELDRTSYQLLERQGYTLNSVPPKGTICYLRATANLSTGGSAVDRTDEIHPENVWLAQRVVRIIGLDIAGLDIVTTDISRPLRDVDGVIVEVNAAPGFRMHVAPSQGIPRNVAGAVMDMLFPNEKPSRIPILTVTGTNGKTTTTRLLAHIYRQTKKVVGYTTTDGTYIGDYLVEAGDNTGPQSAHVILQDPTVEVAVLESARGGILRSGLGFESANVGVVLNVAADHLGIGDIDTIEQLANLKSVVAEAVFPDGYAVLNADDHRVAAMSEKTKANIAYFTMNPDSDLVRKHIQKGGVAAVYENGYLSIVKGDWTHRIERAENIPLTMGGKAPFMIANALAASLAAFVQNVTIEQIRPGLRTFRASVSQTPGRMNLFNLGKYHALVDYAHNPASYEALGSFVRNWTTGQRIGVIGGPGDRRDEDFVTLGKLSADIFDYILVKEDDDTRGRLRGSASDLIIQGITQVKPNSRFESILDETQAINKALDMAPDGSLVVILPESVNRAIKLIKVRGVQEEIQPQNSTTTINDSQNGVAPSSVVNTLL | not soluble
12 | GEFGDEDLEELCPVCGDKVSGYHYGLLTCESCKGFFKRTVQNNKRYTCIENQNCQIDKTQRKRCPYCRFQKCLSVGMKLEAVRADRMRGGRNKFGPMYKRDRALKQQKKALIR | soluble
13 | MGSDKIHHHHHHMTFDEYEVAINSEFTLQGTLTKPKAGGKYAAVIIIAGSGEIDRDGTILPLKLESNIYKDLAHVMAKLGVVTLRFDKRGVGKSDGEFLKTGMWDLVNDIESTITYLKEQPFVDPENIILAGHSEGCMLATVVNARTPVNGLILLTGAAESLEEATKRQREIAYKELKEQKGIKGKLMRLLDVEKRGEKQMEKIKEKMMNTEKDTIKVGFKPMNAKWFREHFQHDIYKDLQQVTCPVLAIAGDKDFQANPEKAKRIGDYVQGDSEVHVIKDMDHSLKSFEGDFKALEFKKNYEEGAGKPLHPMLEEIIMNWISTNFILHKIPVSTLSEYEGDGKESNCL | not soluble
14 | MRGSHHHHHHGSMGKGITGFDPSLYSYLQSISADDSFYLAQLRRETAHLPGAPMQISPEQAQFLGLLISLTGAKQVLEIGVFRGYSALAMALQLPPDGQIIACDQDPNATAIAKKYWQKAGVAEKISLRLGPALATLEQLTQGKPLPEFDLIFIDADKRNYPRYYEIGLNLLRRGGLMVIDNVLWHGKVTEVDPQEAQTQVLQQFNRDLAQDERVRISVIPLGDGMTLALKK | soluble
15 | GPGSMTEHENTPRLELEAALGYSGNLPGSLVAHPDQQHLLYALGACIVIRDANDAESSEFFYGHNDKISCLTVSVSGRYVASGQVTHPGFQADVCIFDFAERRLIHRMLLHKVKVQALAFSLDEQYLASVGGPDDNTVVLWDVKTGRPLCGAPAHHTETKAIAFFNNNSEKLITGGVGSLLVWTVDLEQRKMNSVDINMGNMRRSVQTISIEKTDKYVYCGTTSGDVICAQLQQANVFKMQGPQKKLSGGILSTILTNTGDVLVGSGAGELQLLSKINLTVQNSATVNGGVTALALMGDNYYVGTKTSNLYFVNGGNFMTRLRLTCHSEAVQDVVFPHGFSSVFATCCDTDIRVWNANSCTELLRIEVSNRTCNCLQFSRDGSLIISGWSDGRIRAFGPQSGKLVFSVADAHKVEQGSRSHKVGGKVGVTSVCADNAGHRIITGGSDGLVRVWAIRGATCTLEASMKEHKAAVNAIVISHDDTECVTASDDGSCIVWDLTRYLRRNIMYRQTYFRALEYYVDDSQLITCGSDKCIVYWDSVDCHAIREVCGSRTAELNSLSLSPDGRFFVTGGNDRIVKVWDYDRGECIAVGLAHSCSITKVRVSPDGKKIVSVGDEGAVMVWNIAELAIEGL | not soluble
16 | MGSDKIHHHHHHMKQIYLLLLCGVLFACKKKESLPEVQKIGHSGMGLYGDYPINSFESLMQAFLLGADGVEIDVQMTRDGILVLLHDELLDNQTNGTGAVQERTWDEISNLAYDNIALGRYNIIRLDFLLENCGPHIDKLFYFDIKPNAYSTEHLYTLNRNLSTLITKFNLEDNSVLMYQNNAQFLHMLSLRTDLTIYSYSDFNTAKKNILQYKLNGWVASINDIDESKVAQMHEIGARVVGFSTFNKNDHLNLIHKGVDIIQTDNLKNLINLYQ | not soluble
17 | MGNQYVKPERTGNSPYTRSGVPPPALVKTGDKPLHRVNDRMSLELHMADERVRAAGLSPAEREWRKKWVHDQHLHADEPVVVDAVHRQLNPIRTAYRLPWDKFYLHYLKPTFGVYYGTAIRVTAPKLLMAFVVVQTAYYYWKYEVKDWTHLRGLESMPQKEVIASAPAIEEKFPGLMDKGLANPSKDDYYTPTFNKRTAYLDVGETKRPW | not soluble
